From patent publication US20090081197A1, “Methods for Selection of Melanocortin Receptor-Specific Agents for Treatment of Obesity” (Palatin Technologies, Inc., priority 2007, published 2009)

Legend:
[1] = target: human melanocortin 4 receptor (human) (UniProt P32245); test: cell-based or functional assay
[2] = target: human melanocortin 5 receptor (human) (UniProt P33032); test: radioligand competition, [I125]-NDP-α-MSH, hMC5-R membranes
[3] = target: human melanocortin 3 receptor (human) (UniProt P41968); test: radioligand competition, [I125]-NDP-α-MSH, hMC3-R membranes, 1 µM compound
[4] = target: human melanocortin 5 receptor (human) (UniProt P33032); test: radioligand competition, [I125]-NDP-α-MSH, hMC5-R membranes, 1 µM compound
[5] = target: MC1-R of B-16 mouse melanoma cells (mouse) (UniProt Q01727); test: radioligand competition, [I125]-NDP-α-MSH, B-16 membranes, 1 µM compound
[6] = target: human melanocortin 3 receptor (human) (UniProt P41968); test: radioligand competition, [I125]-NDP-α-MSH, hMC3-R membranes
[7] = target: human melanocortin 4 receptor (human) (UniProt P32245); test: radioligand competition, [I125]-NDP-α-MSH, hMC4-R membranes, 1 µM compound
[8] = target: human melanocortin 4 receptor (human) (UniProt P32245); test: radioligand competition, [I125]-NDP-α-MSH, hMC4-R membranes
[9] = target: MC1-R of B-16 mouse melanoma cells (mouse) (UniProt Q01727); test: radioligand competition, [I125]-NDP-α-MSH, B-16 membranes
human MC1-R (human) = human MC1-R (human) (UniProt Q01726); test: radioligand competition, NDP-α-MSH, human MC1-R, normal system
Chain of human MC1-R (human) (Q01726 whole entry): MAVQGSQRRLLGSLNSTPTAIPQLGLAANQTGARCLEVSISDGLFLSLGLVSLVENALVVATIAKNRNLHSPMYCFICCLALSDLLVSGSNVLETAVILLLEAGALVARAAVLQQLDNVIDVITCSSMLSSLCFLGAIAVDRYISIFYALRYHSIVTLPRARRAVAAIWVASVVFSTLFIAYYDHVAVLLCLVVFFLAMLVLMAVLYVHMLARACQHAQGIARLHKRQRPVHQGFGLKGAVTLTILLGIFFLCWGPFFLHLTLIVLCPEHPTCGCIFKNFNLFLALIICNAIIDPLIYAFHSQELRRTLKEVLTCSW

Chain of human melanocortin 4 receptor (human) (P32245 whole entry): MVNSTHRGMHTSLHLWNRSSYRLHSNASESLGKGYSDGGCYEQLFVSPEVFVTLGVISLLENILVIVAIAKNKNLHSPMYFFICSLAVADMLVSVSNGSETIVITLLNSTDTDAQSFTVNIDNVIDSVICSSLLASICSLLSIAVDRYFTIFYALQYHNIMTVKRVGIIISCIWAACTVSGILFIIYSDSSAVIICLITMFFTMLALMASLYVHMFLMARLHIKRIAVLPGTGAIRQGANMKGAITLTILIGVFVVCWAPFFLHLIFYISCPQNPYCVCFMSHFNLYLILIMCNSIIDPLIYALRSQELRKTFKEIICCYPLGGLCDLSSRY
Chain of human melanocortin 5 receptor (human) (P33032 whole entry): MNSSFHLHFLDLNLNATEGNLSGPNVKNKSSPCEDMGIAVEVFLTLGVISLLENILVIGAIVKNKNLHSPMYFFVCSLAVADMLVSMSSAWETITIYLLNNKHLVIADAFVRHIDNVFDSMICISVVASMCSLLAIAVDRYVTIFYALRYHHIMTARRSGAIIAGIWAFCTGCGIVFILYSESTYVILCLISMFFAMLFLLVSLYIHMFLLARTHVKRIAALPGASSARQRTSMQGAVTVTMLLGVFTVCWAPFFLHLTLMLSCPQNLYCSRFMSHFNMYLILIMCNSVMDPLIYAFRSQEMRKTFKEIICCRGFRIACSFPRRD
Chain of MC1-R of B-16 mouse melanoma cells (mouse) (Q01727 whole entry): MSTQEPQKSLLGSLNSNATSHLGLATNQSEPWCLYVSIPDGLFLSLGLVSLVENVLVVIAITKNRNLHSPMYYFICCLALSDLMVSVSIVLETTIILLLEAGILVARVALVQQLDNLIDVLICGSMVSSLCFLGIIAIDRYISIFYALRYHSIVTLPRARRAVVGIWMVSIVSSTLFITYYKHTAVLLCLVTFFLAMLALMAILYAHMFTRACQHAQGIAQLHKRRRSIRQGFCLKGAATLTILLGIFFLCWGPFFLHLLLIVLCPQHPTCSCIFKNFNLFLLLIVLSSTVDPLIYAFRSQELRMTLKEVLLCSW
Chain of human melanocortin 3 receptor (human) (P41968 whole entry): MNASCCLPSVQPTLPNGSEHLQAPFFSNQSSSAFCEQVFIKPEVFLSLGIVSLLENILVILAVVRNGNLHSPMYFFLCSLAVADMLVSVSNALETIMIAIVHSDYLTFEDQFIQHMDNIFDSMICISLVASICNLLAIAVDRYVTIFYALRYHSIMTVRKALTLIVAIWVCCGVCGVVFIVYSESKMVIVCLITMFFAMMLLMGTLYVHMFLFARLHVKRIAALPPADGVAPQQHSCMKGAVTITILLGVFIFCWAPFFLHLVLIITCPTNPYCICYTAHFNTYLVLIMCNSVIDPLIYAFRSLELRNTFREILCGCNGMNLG

B1: Ac-Nle-cyclo(Asp-His-D-Nal 2-Arg-Nal 2-Lys)-OH (peptide)
peptide: XDHXRXK
modifications: N-terminal acetyl; Nle at 1 (X); D-Nal 2 at 4 (X); Nal 2 at 6 (X); cyclo(Asp 2 to Lys 7); free C-terminal acid
[1]
  pA2 (antagonism of NDP-α-MSH-stimulated cAMP, Schild analysis), normal system: 8.1
[2]
  Ki: 0.2 nM
[3]
  Inhibition at 1 µM (NDP-α-MSH): 98%
[4]
  Inhibition at 1 µM (NDP-α-MSH): 100%
[5]
  Inhibition at 1 µM (NDP-α-MSH): 102%
[6]
  Ki: 0.3 nM
[7]
  Inhibition at 1 µM (NDP-α-MSH): 100%
[8]
  Ki: 0.02 nM
[9]
  Ki: 0.2 nM
Human MC1-R (human)
  Ki: 0.25 nM
